Assay results as given in the MegaScale stability set (Tsuboyama et al. 2023).

B1: EEHEE_rd4_0763 (parent)
chain: LTVHVGNVTYHFDNPEQAEEWAKRMAKKYQGQIHVKDGQFRIE

Variants of: B1
Assay: folding stability dG (cDNA display proteolysis); higher = more stable
Conditions: PBS, room temperature

Folding stability dG [kJ/mol], by site and new letter:
K23: V 6.53; T 5.53; G 4.27; W 6.55; E 5.04; D 3.68; I 7.35; N 5.78; M 6.74; F 6.76; Y 6.77; C 9.92; R 7.76; L 7.06; H 6.61; Q 6.51; P -1.72; A 5.45; S 4.86
P15: I 7.45; Q 6.69; R 7.87; E 6.13; S 7.05; D 4.89; K 7.43; C 7.77; A 7.12; F 8.13; V 7.17; H 7.12; Y 9.08; G 5.15; T 6.6; M 7.22; N 5.77; L 7.77; W 7.97
N7: Y 6.79; W 6.91
D13: K 6.98; L 6.33; Y 5.63; I 6.2; W 5.84; C 9.37; V 6.1; S 7.11; E 6.71; M 6.22; G 5.74; F 5.71; N 7.19; P 6.08; H 5.74; T 7.27; A 6; Q 6.56; R 6.13
N14: V 5.82; H 6.58; I 6.24; M 5.47; L 6.66; F 6.15; R 6.08; Q 5.72; P -0.00837; W 5.2; D 7.56; G 4.33; E 5.68; Y 5.99; S 6.97; A 5.92; K 6.72; T 7.38
Y10: K 3.37; E 0.766; H 4.04; T 1.54; P 1.22; Q 1.59; G 0.64; M 3.78; C 7.42; R 4.95; L 4.17; V 3.82; W 7.74; F 6.43; I 4.09; D 0.13; S 0.598; A 2.15; N 0.565
M25: E 2.24; G 0; A 3.66; C 8.5; K 2.1; P -2.13; H 3.16; Q 3.51; N 2.63; F 5.95; D -0.678; I 6.02; L 6.34
H11: A 5.49; E 5.14; T 7; C 11.5; I 6.52; V 6.74; R 6.61; S 5.97; P 2.31; G 3.16; F 7.31; Y 7.76; N 5.25; M 6.25; Q 6.06; L 6.26; D 3.86; W 7.17; K 6.71
F12: V 0.423; G -1.1; D -0.883; Q -0.598; Y 1.87; S 0.339; P -0.833; K -0.1; N -0.368; R -2.01; A 1.15; E -1.15; W 2.67; M 0.92; C 6.04; L 2.22; I 1.15; H 0; T -0.264
E20: M 7.13; A 7.81; F 6.56; Q 7.08; V 5.67; K 7.54; G 4.92; C 10.2; Y 7.05; T 5.82; P -2.18; L 7.05; I 6.6; R 7.58; S 6.77; D 6.46; H 5.9; N 6.63; W 8.02
A22: D -0.665; V 5.16; S 3.44; L 5.7; T 3.12; R 4.25; I 5.87; E 0.979; W 5.31; K 3.17; H 2.78; M 5.7; P -3.44; G 2.76; F 5.13; Q 2.56; N 1.6; Y 4.42
Q17: V 6.57; S 6.87; E 7.69; A 7.65; W 6.44; D 7.54; P 2.06; M 6.75; K 6.82; C 10.9; H 6.44; R 6.57; Y 6.4; G 4.65; F 5.69; T 6.56; N 5.79; I 6.31; L 7.15
T9: W 5.36; G 2.91; A 6.61; V 8.29; Q 5.41; I 8.02; F 5.73; K 5.75; D 4.25; S 5.87; E 5.38; L 6.6; C 8.39; Y 6.08; M 6.49; H 6.13; P 4.03; R 5.87; N 3.5
E16: I 6.92; S 6.75; V 7.33; M 6.95; N 6.54; K 7.4; Y 6.95; F 6.81; W 6.97; P 3.38; H 7.74; Q 7.07; R 7.28; A 7.04; G 6.2; T 7.02; C 10.6; L 7.02; D 6.67
R24: I 7.31; L 8.1; T 6.06; K 6.83; G 3.97; Q 6.45; P -2.82; Y 7.84; F 7.49; S 5.55; V 6.61; N 4.58; D 4.08; E 5.97; W 6.99; A 7.02; H 6.02; M 7.72
V8: N 5.92; L 6.93; K 7.28; H 7.21; C 12.7; G 3.16; R 8.18; Y 7.43; M 7.05; Q 6.61; S 5.74; D 4.96; P 1.8; F 7.54; E 5.68; A 6.62; W 7.56; T 6.41; I 7.13
A18: L 5.3; H 2.41; N 0.188; P -0.502; T 2.16; G 5.21; K 2.93; D 0.552; S 2.31; E 1.54; V 4.17; I 4.21; Q 4.05; R 3.69; W 4.64; M 5.05; F 6.09; Y 4.9; C 6.46
W21: H 2.91; T 1.28; L 2.79; F 9.52; I 1.65; G 0.0335; K -1.03; E 1.43; Y 6.29; N 0.0335; C 10.7; R -1.03; V 2.16; Q 1; A 3.72; D -1.95; S 0.192; M 3.95
E19: P 2.7; Q 6.61; N 5.66; K 6.79; I 7.84; C 10.6; H 7.2; F 9.61; W 11; S 5.82; T 5.9; Y 9.84; D 4.42; R 7.07; A 7.17; L 9.39; V 7.08; G 5.06; M 8.65
